Drawing on patent publication US20200164083A1, this text covers EC50 for one substance.

This assay has as its target capture reagent (antibody) of the exenatide ELISA kit (Peninsula Laboratories Inc., # S-1311). The experiment in a line: ELISA (Peninsula Lab exenatide kit). Background: An ELISA detects its analyte on a solid surface through an enzyme-linked reagent.

Turning to exenatide (peptide), the EC50 (in general, the concentration giving half of the maximal effect) is 0.2 nM.
